Results: CN113563475A (INST MICROBIOLOGY CAS, dated 2021)

B1: 单抗B38 (antibody, V domains shown)
VH: EVQLVESGGGLVQPGGSLRLSCAASGFIVSSNYMSWVRQAPGKGLEWVSVIYSGGSTYYADSVKGRFTISRHNSKNTLYLQMNSLRAEDTAVYYCAREAYGMDVWGQGTTVTVSS
VL: DIVMTQSPSFLSASVGDRVTITCRASQGISSYLAWYQQKPGKAPKLLIYAASTLQSGVPSRFSGSGSGTEFTLTISSLQPEDFATYYCQQLNSYPPYTFGQGTKLEIK
B2: 双特异性抗体BS-mAb-2 (bispecific antibody)
heavy: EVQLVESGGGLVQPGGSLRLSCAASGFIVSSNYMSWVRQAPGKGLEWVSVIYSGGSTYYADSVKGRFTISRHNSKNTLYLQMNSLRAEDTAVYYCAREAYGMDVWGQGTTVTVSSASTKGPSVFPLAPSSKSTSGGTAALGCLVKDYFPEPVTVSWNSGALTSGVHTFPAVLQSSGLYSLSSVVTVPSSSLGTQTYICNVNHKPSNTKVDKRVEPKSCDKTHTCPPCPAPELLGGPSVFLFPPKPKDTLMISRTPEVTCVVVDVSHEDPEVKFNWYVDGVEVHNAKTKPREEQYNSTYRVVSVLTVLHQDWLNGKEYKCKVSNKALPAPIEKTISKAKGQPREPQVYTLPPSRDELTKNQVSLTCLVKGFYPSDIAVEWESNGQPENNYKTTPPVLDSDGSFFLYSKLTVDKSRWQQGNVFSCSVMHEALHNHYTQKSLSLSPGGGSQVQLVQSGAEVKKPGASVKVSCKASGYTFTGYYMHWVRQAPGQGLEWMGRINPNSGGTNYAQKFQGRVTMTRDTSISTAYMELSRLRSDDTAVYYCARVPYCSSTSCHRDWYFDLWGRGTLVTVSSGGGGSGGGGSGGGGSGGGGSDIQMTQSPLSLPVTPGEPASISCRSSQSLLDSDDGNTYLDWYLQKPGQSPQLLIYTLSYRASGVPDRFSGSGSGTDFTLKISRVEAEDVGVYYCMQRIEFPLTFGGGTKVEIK
light: DIVMTQSPSFLSASVGDRVTITCRASQGISSYLAWYQQKPGKAPKLLIYAASTLQSGVPSRFSGSGSGTEFTLTISSLQPEDFATYYCQQLNSYPPYTFGQGTKLEIKRTVAAPSVFIFPPSDEQLKSGTASVVCLLNNFYPREAKVQWKVDNALQSGNSQESVTEQDSKDSTYSLSSTLTLSKADYEKHKVYACEVTHQGLSSPVTKSFNRGECS
B3: 双特异性抗体BS-mAb-1 (bispecific antibody)
heavy: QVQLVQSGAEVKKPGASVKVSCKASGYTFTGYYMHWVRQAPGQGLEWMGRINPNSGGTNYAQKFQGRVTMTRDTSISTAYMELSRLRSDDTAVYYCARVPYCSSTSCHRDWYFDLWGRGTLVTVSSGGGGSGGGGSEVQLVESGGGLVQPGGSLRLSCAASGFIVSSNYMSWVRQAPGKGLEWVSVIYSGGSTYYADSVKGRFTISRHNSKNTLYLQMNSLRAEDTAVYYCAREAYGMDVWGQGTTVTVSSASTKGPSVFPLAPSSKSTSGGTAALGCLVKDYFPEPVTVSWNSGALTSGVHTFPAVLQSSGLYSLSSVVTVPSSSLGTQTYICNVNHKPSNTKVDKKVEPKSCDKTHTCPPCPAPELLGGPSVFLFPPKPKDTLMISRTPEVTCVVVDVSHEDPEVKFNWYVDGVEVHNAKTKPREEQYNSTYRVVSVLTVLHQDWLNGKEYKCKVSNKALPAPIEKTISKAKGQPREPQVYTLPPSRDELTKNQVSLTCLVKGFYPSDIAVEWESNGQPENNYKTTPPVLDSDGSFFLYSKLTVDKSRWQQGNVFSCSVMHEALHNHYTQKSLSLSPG
light: DIQMTQSPLSLPVTPGEPASISCRSSQSLLDSDDGNTYLDWYLQKPGQSPQLLIYTLSYRASGVPDRFSGSGSGTDFTLKISRVEAEDVGVYYCMQRIEFPLTFGGGTKVEIKGGGGSGGGGSDIVMTQSPSFLSASVGDRVTITCRASQGISSYLAWYQQKPGKAPKLLIYAASTLQSGVPSRFSGSGSGTEFTLTISSLQPEDFATYYCQQLNSYPPYTFGQGTKLEIKRTVAAPSVFIFPPSDEQLKSGTASVVCLLNNFYPREAKVQWKVDNALQSGNSQESVTEQDSKDSTYSLSSTLTLSKADYEKHKVYACEVTHQGLSSPVTKSFNRGEC

How the values were obtained:
[1] = biological target: 新冠病毒S抗原 (on VSV-SARS-CoV-2 pseudovirus, wild type) (新型冠状病毒 (2019-nCoV / SARS-CoV-2), UniProt P0DTC2 14-1273); test: cell-based or functional assay
带有组氨酸标签的S蛋白RBD = 带有组氨酸标签的S蛋白RBD (新型冠状病毒 (2019-nCoV / SARS-CoV-2), UniProt P0DTC2 319-541)

Binder	中和滴度(半数中和浓度，NC50), 2019-nCoV假病毒, Hela-hACE2, luciferase [1] [µg/mL]	Kd (带有组氨酸标签的S蛋白RBD) [µM]
B1	0.681	0.0225
B2	0.048	–
B3	0.119	–
